Measurements reported in paper PMC10853800.

B1: Cy5-P1 ssDNA (ssDNA)
DNA: TTATATCCTTTACTTTGAATTCTATGTTTAACCTTTTACTTATTTTGTATTAGCCGGATCCTTATTTCAATTATGTTCAT
B2: Cy5-P1/P2 dsDNA (dsDNA)
DNA 1: B1 DNA
DNA 2: ATGAACATAATTGAAATAAGGATCCGGCTAATACAAAATAAGTAAAAGGTTAAACATAGAATTCAAAGTAAAGGATATAA
B3: 83(dT) (ssDNA)
DNA: TTTTTTTTTTTTTTTTTTTTTTTTTTTTTTTTTTTTTTTTTTTTTTTTTTTTTTTTTTTTTTTTTTTTTTTTTTTTTTTTTTT

Key:
EYA4 1-365 = biological target: T1, EYA4 1-365 (UniProt O95677 1-365); experiment: MST
T1 sequence: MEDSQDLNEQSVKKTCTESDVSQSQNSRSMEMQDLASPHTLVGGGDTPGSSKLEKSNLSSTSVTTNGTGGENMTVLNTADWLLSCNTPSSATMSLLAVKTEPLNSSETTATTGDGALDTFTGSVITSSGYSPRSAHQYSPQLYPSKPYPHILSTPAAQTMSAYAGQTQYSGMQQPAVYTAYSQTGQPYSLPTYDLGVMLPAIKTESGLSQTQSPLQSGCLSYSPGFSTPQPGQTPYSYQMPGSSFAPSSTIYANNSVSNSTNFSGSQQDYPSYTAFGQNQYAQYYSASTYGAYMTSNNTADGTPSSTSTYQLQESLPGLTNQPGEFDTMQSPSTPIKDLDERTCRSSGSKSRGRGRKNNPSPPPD

RAD51 Y54F/Y315F [1] = biological target: T2, RAD51 Y54F/Y315F (UniProt Q06609 1-339, Y54F;Y315F); experiment: MST
EYA4 358-639 = biological target: T3, EYA4 358-639 (UniProt O95677 358-639); experiment: EMSA
T3 sequence: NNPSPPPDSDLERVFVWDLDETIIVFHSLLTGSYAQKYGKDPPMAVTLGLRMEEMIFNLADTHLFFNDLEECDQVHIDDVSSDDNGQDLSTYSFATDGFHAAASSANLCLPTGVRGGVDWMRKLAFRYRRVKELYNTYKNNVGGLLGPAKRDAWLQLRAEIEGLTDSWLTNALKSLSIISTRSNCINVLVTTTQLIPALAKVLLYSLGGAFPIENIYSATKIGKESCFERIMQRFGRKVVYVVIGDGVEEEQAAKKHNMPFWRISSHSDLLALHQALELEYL

RAD51 Y54F/Y315F [2] = biological target: T2, RAD51 Y54F/Y315F; experiment: MST; remark: listed apart in the source
RAD51 Y54F/Y315F [3] = biological target: T2, RAD51 Y54F/Y315F; experiment: negative-stain EM
RAD51 T309A = RAD51 T309A (UniProt Q06609 1-339, T309A); experiment: negative-stain EM
RAD51 WT = RAD51 WT (UniProt Q06609 1-339); experiment: negative-stain EM
Chain of RAD51 WT (Q06609 whole entry): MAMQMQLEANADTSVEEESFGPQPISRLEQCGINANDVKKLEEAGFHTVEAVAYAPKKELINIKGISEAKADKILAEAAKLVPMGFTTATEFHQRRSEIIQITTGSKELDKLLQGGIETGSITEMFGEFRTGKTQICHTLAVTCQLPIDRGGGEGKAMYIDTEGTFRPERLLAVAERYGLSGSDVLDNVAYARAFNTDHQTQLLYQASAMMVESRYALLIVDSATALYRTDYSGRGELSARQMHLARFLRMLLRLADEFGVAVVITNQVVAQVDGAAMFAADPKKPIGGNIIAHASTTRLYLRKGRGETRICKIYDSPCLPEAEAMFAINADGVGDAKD

T2 sequence (Q06609 whole entry Y54F/Y315F): as the sequence (Q06609 whole entry) above, with Y54F, Y315F counted along it
Chain of RAD51 T309A (Q06609 whole entry T309A): as the sequence (Q06609 whole entry) above, with T309A counted along it

| Binder | Kd (EYA4 1-365) | binding result (RAD51 Y54F/Y315F [1]) | binding result (EYA4 358-639) | binding result (RAD51 Y54F/Y315F [2]) | binding result (RAD51 Y54F/Y315F [3]) | binding result (RAD51 T309A) | binding result (RAD51 WT) |
| --- | --- | --- | --- | --- | --- | --- | --- |
| B1 | 303 nM | binds | no binding | – | – | – | – |
| B2 | 732 nM | – | no binding | binds | – | – | – |
| B3 | – | – | – | – | binds | binds | binds |
